According to patent US20250197451A1 (CAPITAL MEDICAL UNIVERSITY SCHOOL OF STOMATOLOGY, published 2025):

Target: T1, biotin-labelled EZH2 protein (UniProt Q15910 1-746, limits assumed, biotin label (EZ-link NHS-PEO4-Biotinylation kit))
T1 construct: Probe in solution (1 ug/ml) on the KDM2B peptide microarray; also called NHS-PEO4-Biotinylation-labelled EZH2 protein; recombinant protein
Experiment: KDM2B peptide array probed with biotin-EZH2 1 ug/ml, SA-HRP/ECL;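 also: Background-corrected optical density of each spot on the membrane, given as percent of the brightest spot (100%), color developed for 5 minutes; 100% is the highest background-corrected spot optical density on the membrane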

T1 sequence (Q15910 whole entry): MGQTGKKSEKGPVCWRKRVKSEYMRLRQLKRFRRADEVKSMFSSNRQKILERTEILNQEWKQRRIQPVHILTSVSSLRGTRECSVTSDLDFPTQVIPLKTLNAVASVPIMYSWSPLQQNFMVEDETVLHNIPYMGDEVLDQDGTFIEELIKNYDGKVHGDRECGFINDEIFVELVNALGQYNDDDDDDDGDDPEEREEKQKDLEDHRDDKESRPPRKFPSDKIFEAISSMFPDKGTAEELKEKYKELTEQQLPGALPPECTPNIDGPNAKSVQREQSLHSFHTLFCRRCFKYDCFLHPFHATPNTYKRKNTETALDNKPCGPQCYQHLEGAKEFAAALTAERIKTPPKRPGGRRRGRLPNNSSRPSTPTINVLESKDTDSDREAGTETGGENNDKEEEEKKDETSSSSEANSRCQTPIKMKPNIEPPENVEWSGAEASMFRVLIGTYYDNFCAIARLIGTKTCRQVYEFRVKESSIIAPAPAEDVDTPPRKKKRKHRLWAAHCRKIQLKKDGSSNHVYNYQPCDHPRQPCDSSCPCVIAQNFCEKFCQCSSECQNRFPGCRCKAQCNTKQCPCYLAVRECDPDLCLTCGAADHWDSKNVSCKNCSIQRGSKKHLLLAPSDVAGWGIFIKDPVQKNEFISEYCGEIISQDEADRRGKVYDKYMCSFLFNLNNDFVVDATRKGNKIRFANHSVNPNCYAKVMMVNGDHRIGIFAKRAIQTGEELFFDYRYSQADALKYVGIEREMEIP

Q: How did the “Intensity (%)” value turn out when FWLIPPTLHNLALYE [peptide 53] was run?
A: 0.7%

Q: WYHVFRGGKIFWLIP [peptide 51] was tested. Which “Intensity (%)” value did it give?
A: 0%

Q: For EWVLSGKQSDIFLGD [peptide 56], which “Intensity (%)” value is on record?
A: 24.6%

Q: With TVVDLVDWVDNMWPQ [peptide 39] as the binder, how does the “Intensity (%)” value read?
A: 0.27%

Q: Which “Intensity (%)” value does the source give for FHIDFGGTSVWYHVF [peptide 49] here?
A: 0%

Q: LVKRPTVVDLVDWVD [peptide 38] was tested. Which “Intensity (%)” value did it give?
A: 0%

Q: How did the “Intensity (%)” value turn out when QKGTEMSMSQFVRYY [peptide 30] was run?
A: 1.2%

Q: Which “Intensity (%)” value does the source give for GCFTDFHIDFGGTSV [peptide 48] here?
A: 0%

Q: For EDHPPRKRHAAEKQK [peptide 3], which “Intensity (%)” value is on record?
A: 0%

Q: Which “Intensity (%)” value does the source give for LEFSHTKLEHLVKRP [peptide 36] here?
A: 0.89%

Q: How did the “Intensity (%)” value turn out when AEKQKKKTVIYTKCF [peptide 5] was run?
A: 97%

Q: With LMSVKGCFTDFHIDF [peptide 47] as the binder, how does the “Intensity (%)” value read?
A: 100%

Q: Which “Intensity (%)” value does the source give for MSMSQFVRYYETPEA [peptide 31] here?
A: 19.2%

Q: Which “Intensity (%)” value does the source give for YNVISLEFSHTKLEH [peptide 35] here?
A: 5.95%

Q: Which “Intensity (%)” value does the source give for RGGKIFWLIPPTLHN [peptide 52] here?
A: 0.55%

Q: VKKYCLMSVKGCFTD [peptide 46] was tested. Which “Intensity (%)” value did it give?
A: 100%

Q: How did the “Intensity (%)” value turn out when VDWVDNMWPQHLKEK [peptide 40] was run?
A: 0%

Q: Which “Intensity (%)” value does the source give for QTEATNAIAEMKYPK [peptide 43] here?
A: 0%

Q: With TKLEHLVKRPTVVDL [peptide 37] as the binder, how does the “Intensity (%)” value read?
A: 0.73%

Q: Which “Intensity (%)” value does the source give for RLVDVMDVNTQKGTE [peptide 28] here?
A: 0%

Q: RKRHAAEKQKKKTVI [peptide 4] was tested. Which “Intensity (%)” value did it give?
A: 0%

Q: Which “Intensity (%)” value does the source give for QRDKLYNVISLEFSH [peptide 34] here?
A: 0%

Q: How did the “Intensity (%)” value turn out when IFLGDRVERCQRIEL [peptide 58] was run?
A: 15.6%

Q: For NMWPQHLKEKQTEAT [peptide 41], which “Intensity (%)” value is on record?
A: 0%

Q: For LVGSRRLVDVMDVNT [peptide 27], which “Intensity (%)” value is on record?
A: 0%

Q: For MKYPKVKKYCLMSVK [peptide 45], which “Intensity (%)” value is on record?
A: 7.77%

Q: With MDVNTQKGTEMSMSQ [peptide 29] as the binder, how does the “Intensity (%)” value read?
A: 5.32%

Q: How did the “Intensity (%)” value turn out when LALYEEWVLSGKQSD [peptide 55] was run?
A: 0%

Q: For HLKEKQTEATNAIAE [peptide 42], which “Intensity (%)” value is on record?
A: 2.03%
